Patent publication US20050287638A1

Target: recombinant 190 kDa hHARE expressed in Flp-In 293 cells (human)

endocytosis of ^125I-HA by 190hHARE Flp-In 293 cell lines at 37° C. (% of the control value): 103
Substance: mouse IgG (polyclonal serum or antibody)
